Source: PMC8424379 (2021)

Target: Raf2 fused to Gal4 DNA-binding domain (UniProt O74560)
Assay: yeast two-hybrid (β-galactosidase)
Conditions: Ccq1 fused to Gal4 activation domain, read off a plot

Chain of Ccq1_(496–583), Raf2-binding motif of Ccq1, fused to Gal4 activation domain (Q10432 496-583, stated change not applied): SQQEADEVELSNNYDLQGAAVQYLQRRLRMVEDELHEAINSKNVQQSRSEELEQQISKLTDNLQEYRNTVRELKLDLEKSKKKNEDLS
Chain of Raf2 fused to Gal4 DNA-binding domain (O74560 whole entry, the tested form may be a part): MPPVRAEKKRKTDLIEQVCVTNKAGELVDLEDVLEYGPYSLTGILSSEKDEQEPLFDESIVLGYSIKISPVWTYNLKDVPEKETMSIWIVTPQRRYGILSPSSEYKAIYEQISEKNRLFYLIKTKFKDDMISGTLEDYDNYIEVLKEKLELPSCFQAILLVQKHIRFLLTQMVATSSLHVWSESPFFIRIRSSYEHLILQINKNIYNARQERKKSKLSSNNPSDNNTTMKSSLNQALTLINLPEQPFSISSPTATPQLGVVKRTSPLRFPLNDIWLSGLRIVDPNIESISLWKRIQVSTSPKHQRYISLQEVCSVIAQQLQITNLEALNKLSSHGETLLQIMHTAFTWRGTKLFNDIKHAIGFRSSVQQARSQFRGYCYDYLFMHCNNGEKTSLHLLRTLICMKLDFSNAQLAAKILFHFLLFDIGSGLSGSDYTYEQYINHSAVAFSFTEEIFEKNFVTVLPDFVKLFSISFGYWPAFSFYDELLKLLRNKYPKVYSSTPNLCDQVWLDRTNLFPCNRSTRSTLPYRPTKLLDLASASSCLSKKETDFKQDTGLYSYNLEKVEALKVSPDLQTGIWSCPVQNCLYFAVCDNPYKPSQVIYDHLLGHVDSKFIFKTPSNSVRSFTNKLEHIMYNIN

response: 80
Substance: Ccq1_(496–583), Raf2-binding motif of Ccq1, fused to Gal4 activation domain (from UniProt Q10432) V570R
